Experimental data published in US20240158537A1 (BRIGHT PEAK THERAPEUTICS, published 2024).

What was measured:
[1] = biological target: T1, Biotinylated Recombinant Human PD-1 (CD279)-Fc Chimera (carrier-free), Biolegend #789406 (human, UniProt Q15116 25-167, biotinylated (site not stated)); assay: ELISA (OD 450 nm): antibody coated on the plate, biotinylated human PD-1-Fc titrated, streptavidin-HRP detection; x axis 'Molecule (nM)'; EC50 table beside the plot
T1 construct: Bought reagent; also called h-PD1 Fc; Fc part of the bought chimera not given

[2] = biological target: T1, Biotinylated Recombinant Human PD-1 …; assay: ELISA (OD 450 nm): immunocytokine coated on the plate, biotinylated human PD-1-Fc titrated, streptavidin-HRP detection; x axis 'Molecule (nM)'; EC50 table beside the plot
Method: Each of these variant conjugates and unmodified antibodies were assayed by ELISA for their ability to bind to human PD-1 according to the following protocol.
Streptavidin-HRP was Sigma #RABHRP3. TMB solution was 3,3′,5,5′-Tetramethylbenzidine (Sigma T0440). Stop solution was Sigma #CL07STOP solution (0.5M H2SO4). Buffers were: Coating buffer was PBS. Wash buffer was PBS-0.02% Tween20. Blocking buffer was PBS-0.02% Tween20 1% BSA. Protein diluent was PBS-0.02% Tween20 0.1% BSA. STOP solution was 0.5M H2SO4. […] The ELISA plates were washed 4 times with 100 μl PBS—0.02% Tween20. and blocked with PBS—1% BSA. A serial dilution of h-PD1 Fc was prepared and plates were incubated for two hours at 37° C., with shaking (600 rpm). ELISA plates were washed and incubated with Streptavidin-HRP 30 min at RT, with shaking (600 rpm). ELISA plates were washed and incubated with ready-to-use TMB solution. Reaction was stopped and plates were read by OD450 on an Enspire plate reader.

T1 sequence (Q15116 25-167, change not shown): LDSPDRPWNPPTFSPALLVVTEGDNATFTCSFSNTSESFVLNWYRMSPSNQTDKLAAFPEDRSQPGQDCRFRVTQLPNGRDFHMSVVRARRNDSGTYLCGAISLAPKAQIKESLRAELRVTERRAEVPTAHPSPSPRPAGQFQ

Binder	EC50 [1]	EC50 [2]
LZM-009 (unmodified anti-PD-1 antibody, SEQ ID NOs: 76-77) (antibody, V domains shown, It was tested as a full antibody with an Fc region (K248, Eu numbering); also called parental antibody) VH: QVQLVQSGAEVKKPGASVKVSCKASGYTFTSYYMYWVRQAPGQGLEWMGGVNPSNGGTNFNEKFKSRVTITADKSTSTAYMELSSLRSEDTAVYYCARRDYRYDMGFDYWGQGTTVTVSS VL: EIVLTQSPATLSLSPGERATISCRASKGVSTSGYSYLHWYQQKPGQAPRLLIYLASYLESGVPARFSGSGSGTDFTLTISSLEPEDFATYYCQHSRELPLTFGTGTKVEIK	0.035 nM	
Composition C (LZM-009-IL-7 conjugate, DAR 1) (other, not fully specified; Nle at 17, 27, 54, 69, 147; Hse at 36, 76, 114; N-terminal amine carries the glutaryl-PEG-azide handle of Composition AA, joined by a chemical linker to K248 of the antibody heavy chain; K248 (Eu numbering) of the Fc region, whose sequence is not given, carries a DBCO linker reacted with the azide of Composition AA (triazole); drug-antibody ratio 1, Chemical conjugate; also called immunocytokine Composition C) VH: QVQLVQSGAEVKKPGASVKVSCKASGYTFTSYYMYWVRQAPGQGLEWMGGVNPSNGGTNFNEKFKSRVTITADKSTSTAYMELSSLRSEDTAVYYCARRDYRYDMGFDYWGQGTTVTVSS VL: EIVLTQSPATLSLSPGERATISCRASKGVSTSGYSYLHWYQQKPGQAPRLLIYLASYLESGVPARFSGSGSGTDFTLTISSLEPEDFATYYCQHSRELPLTFGTGTKVEIK DCDIEGKDGKQYESVLXVSIDQLLDSXKEIGSNCLXNEFNFFKRHICDANKEGXFLFRAARKLRQFLKXNSTGDFXLHLLKVSEGTTILLNCTGQVKGRKPAALGEAQPTKSLXENKSLKEQKKLNDLCFLKRLLQEIKTCWNKILXGTKEH		0.0348 nM
